# Test: label from the status in PepcDB records
# 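Note: failed if final PepcDB status was selected cloned or expressed and not failed if soluble or beyond.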
row,Sequence,protein production
1,MLVSPDTPRFLAARLLLGAWLACGAGAQAQTLLDTSAAIGVQNTLNQIQPGVTQVPGSLSVQFDACKMAPESCKDGQPIGAAPAPATSGQSAQNAQSAQPAPSQVAPAAPTTPTQTTPTPAGEAPATRPVPTVVPLTAEQQQLLQAAQAQFAAGRYPQARNEFEALIVRNYNNPEPHFGLGLALYQLGDLRGATFEFGQFMQFAPQRYEGPYNLGVIATREGRYPDALRLYGEALTLAQSAPPAARQVLLRALATEQGRVKDYVALAATYADLRAADPENVEYIFRHAQALYQAGQVADALPVTYAVLERKPSSLQAALLLADLYVAQGLPDRAVRELSAAAARVLTGTDRATLLLRQSDLLLAQNNLRGALNAASEARQEDRRLPAAIIREAELLAQFGQRPAAVRAYRDALALTPKSAPIQAALAALYLEGNQYPEAAQAAQQALKLTPDASTRARALYVQGVVAYRQGQYTQARTALNSSVLAVPDADSLLWLGLSYYALKDYASAVPVLSESVRLRPTPAARQNLAAALLATARYAEAEALLRGLVTDEVKNAEGWYLLGLSQRAQQRPDDARQSFKTAAGLGSARAKDALK,failed
2,MLVTVMIPTYNQKDYVGSAIESALAQTYADLEIVVADDASPDPGVAKVLERYRNHPKVRLYRNAQNLGRVANYRKTLYERARGEWVINLDGDDYLVDPCFVEDAVGVVKKHPDIVAVLGGRKVLQASGTHKVQQANVCLSGRVAPRDVFSGILDGTLFPYHNATLYSRTHALAIGFYEQDIVSSDLESFLRLFARGAVGVLPRIVGVWREHSGNTSGTMAFSDYLANIQVFESVMHTAEEPDIAVKSSFLKSWSSRYAYSKGKDYAYRLLKDSDSPSLCFGYLKRLSKVSSVAALRILIQPKVLFNLLARALPSQISRCFR,failed
3,MLWFAMSSVLRVRPTKIELIRLKRRKALAEKVHRILRERLTILVNEFLVRVREAYSLRRTVNDLVFNLYNDSVLLNSVYGEYGFQYFRSITVEGLRAVIGVENIMGVKTRSAVVKHSKTIEYVYPGFDSFRDGARKLIEAIIELGRAEQALIALGREIERTKRKVNALKYIIIPRLANTIRYLNMKFEEREREEKARLKRIKSVLEKRR,failed
4,MLWFGQPGPGGWNRKCLRPFTLPRGQHPQPSYGFPQVNEVVFSPGESHCATCSEDGSVRVWALASMELVIQFQVLNQSCLCLAWSPPCCGRPEQQRLAAGYGDGSLRIFSVSRTAMELKMHPHPVALTTVAFSTDGQTVLSGDKDGLVAVSHPCTGTTFRVLSDHQGAPISTICVTCKETQGHLPPSLAAFCPWDGALLMYVGPGVYKEVIIYNLCQKQVVEKIPLPFFAMSLSLSPGTHLLAVGFAECMLRLVDCAMGTAQDFAGHDNAVHLCRFTPSARLLFTAARNEILVWEVPGL,failed
5,MLWSFIAVCFSAWLYVDASYRGPAWRRWVFKPVTLILLLLLAWQAPMFNAISYLVLAGLCASLLGDALTLLPRQRVMYAVGAFFLSHLLYTIWFASQLTLSFFWPLPLVLLVFGALLMAVIWSRLEEMKMPVLTFIGMTLVMVWLAGELWFARPTNTALSGFAGAALLLLSNAVWLVSHYRRRFRADNAIAAAFYFAGHFLIVRALYL,failed
6,MLYFIPTPIGNLSDISFRALELLKTCDLVFCEDTRVSKSLISLLNTKFHTDIHISKFIALHSHNEKEVLASIDLKIFEKNVAYLSDAGMPGISDPGKALVEFAQENNITYEILPGA,not failed
7,MLYHKLGYVQSAQQTLREVMTIWQAWFKALKAYRKNPARFTGRPRMPRYLHKSQRHTFYVTNQNAQIVRKDEQDKGYLVIKKLGIKIKLASADIKKIGRVAFKPVANGYKVIVPYKTKQKIKYLPDNGKYLGIDPGIDNAFACVSNTGARPLLINGRGIKSVNQYYNKKRSELKRLQAKYHQLEKLISTKQGLKPVYQETKAMKRITAWRNDKIRQFAHKASKRIVDYALSCDANTIVIGKNKSWKRSFEMGKRNNQNFIGIPHQVMIDMIKYKANLAGITVIQTNESYTSQISALDHEQPCWNNGNKSRKKQRKSPVNRRIKRGLFKADNGTLINADINGALQIIKKVFPNFSLDDGIVGAVLRPFKWSPTI,failed
8,MLYIFLLPIIGLALAFIINKIFPRAQFRGYDVLPFFFIAACSLITLHINRPSFLPYGFLLYFILVIVVSLSDAIRNKNISLGKTIRKLWDYLAACTCFWYLGLLIMMFL,failed
9,MMAKLVVCIIDGMADPPPPAGGVTPLAAAHTPHCDTLARHSVAGLCHVIQPEAVPGSEAGLSALLCCEAAASIARGPVEALAQGDPVAPHETVWRLNLVSLGPRGNYYNPAPLLDAATETAARKMLDRALGTQGYSLLGGKGFRHLCAGTEPPVLRDGPQDVCGMTPDTGQADLNSYCPRLARAMTEANVLFRRSRMDLAVWPWGAGTMPDLPGFAETTGQTGALAGGVPLARGLALALGMTAPSIAGATGGIDTDLGAKTRAAIALAAGHDVVYLHVEAPDLHAHALDRVAKRRAIERIDAEVVGPLHMALPDATLLITCDHATDCATGRHMAIPVPFILHKPDGPQDGIATFSEAASARTGIRIDSAATLVRLALADLEHHHHHH,not failed
10,MMAQRSLFQCESSVDEELDRMEIRTLTRYGENRRRDKGVPIECDCNAKVVVVTSLDPVTTGKLFFSCPYEISDGPGQGCGFKRWWTVALCDEFDMIKEETTEMKKDLEAANKRVESLAEKIFLMEKKFETLEKKYESLNKYL,failed
11,MMAVESSKRLASETPVSLFIPYSHHITDTIISTKNAEYLSIWKIDGRSHQSASEEDIFQWARELNNTLRGIASANLSLWTHIVRRRVYEYPDSTFDKMFCYQLDEKYRQSFTGYNLMVNDLYLTVVFQPIADKVMSFFSQHERETLDQKKMRQESCIKALNDINRTLGQSFKRYGGELLGTYEKNGHAYSSALEFLAMLVNGEYSPMPICRDRFADYMSINRPFFSKWGALGELRTTSGIRRFGMMEIKEYDTTTKPGQFNVLLESDFEFVLTQSFSVLSRHAAKDYLQRHQRNLIDARDVATSQIEQIDEALNQLISGHFVMGEHHCTLTIYGDTVQQVRDYMAKANAALLEVAVLPKPVDLAIEAGYWAQLPANWKWRPRPAPITSLNFLSFSSFHNFMSGKPTGNPWGPAVTILKTISKTPLYFNFHASKLEEDATDKRLLGNTAIIGQSGSGKTVLLGFLLAQAQKFKPTTVVFDKDRGMEIAIRAMGGRYLTFKPGRQSGFNPFQLPPTQDNLTFLKQFVKKLAEASSEITHRDEEEINQAVMSIMSSNINPSLRRLSFLLQFLPNPHLNDYNSHPSVHTRLIKWCEGGDYGWLFDNPTDALDLSTHQIYGFDITEFLDNPETRTPVMMYLLYRTEGMISGQRFMYIFDEFWKPLQDPYFEDLAKNKQKTIRKQNGIFVFATQEPTDALESNIAKTLIQQCATYIFLANPKANYEDYTEGFKLTDAEFELIKGIGEFSRQFLIKQGDQSALAELNLGKFHVTIDGKTVEQNFSDELLVLSGTPDNAELVENIIAEVGDDPALWLPVFLQHIKTNRRTT,failed
12,MMDSHCRVRAPGAAQPADCPPPTTQHAALAARLGHARLHTLYDQATWSEGPAWWEAQRTLVWSDVVGRRVLGWREDGAVDVLLDATAFTNGNAVDTQQRLVHCEHGRRAITRSEVDGRAHLLVGRFEGKRLNSPNDLIVARDGAIWFTDPPFGLRKPSQGCPGPQELDHHGVYRLPPDGGALQCMVNLDHPNGLAFSPDERVLYVSQTPEGGPGAPEITALDWHDGALHNRRRFAVVPEGLPDGFCVDCQGWLWSSSGAGVCVFDSGGHVLGLVPTPHTASNCTFDLVQRRLFITGGSTLWLLDLQR,failed
13,MMDSVKNASENISRRLSRTWDHISDGWRELVHHGSDALTHFVHRKGEEDKGQEAAASTPAFPRWSILAGDMEETDREIVVRIEVPGMEKKDFEISIEGKTLSLRGEKRFERDTNDSKYHVMERAYGVFQRTLPLPVEVNEDKAEADYKNGVLTVRLPKLNVEKRRFISIS,failed
14,MMELIVAQAAASAAELPFLLLQAAAVVGMVSMLMLLQRHIAFDDVRYKIYYGVVFGATGFLLTLLVSEFIQLPSKPYIRSDLLFLAGVVGSWQGGLISLALISAGRFLFGGPALFGAAFLDMSVISAFGIAIYGWMRRRRLTELGMREIAGVFAIRIFAALFAICLTYGLGMVGQDVFLSNVGRRIVGATVGLPMIACLFLLLRSEARAREAVKKREVAARTDSLTGLPNRRALKDHIEMTTRQAPAVPHALLLIEIVNIADVAAYQGDDWADLFWPKLAREICDGENGLLSKFNDPRSFMFGDATLAVVIEGVSLEKSESAGLVLHLHEGLIAFFRSAEAGPVPHLKIGAANLEMVSHQNVASFLRHLSLALRRSENPVQIFPFSFAEKAARDEGVRQMLVRWIKNGKPPIFYQPKFEIHNRRMIGAEALLRAIDTHGQALSPYYVLEIAERHRLLVEFEWSTIEAVVRDLAELPGLDPDFHLAVNISASSFATACFADRVVALLQEMTVPAHRLSIEVTEMSRMPTTDSVQQNFDTLIAAGVRLALDDFGTGYAALTLLARFPFEEVKIDQWMTSRLDQARFRDAVVLAFESAERYGAKLVTEGIETEEQCRILMQMGIRFGQGYLYSPAVPLDRLLPRRAYA,failed
15,MMENPQQGLEMRSIVVAYYREQAVSTLVKTLIFIVTLLFIGRSFSEEKNYDMQQLSAQQAYENGRLLRAQFKNLAAREYLKYAADLGEPNAAYLYAMEVANYRTTIRTPPESQHYLLLAAQGGSRQAMRVLYQNGEWLRAAERSLWQQTYYDTLIELGSREPSQAAYELALFHQKDNPKLAQHYLTIAVEFEHPAALMLMAQQIEQGEGSYPMPGSRATEARKTYLKAAQTGYIPAIRNYIQLLENKGKYQDAYYWRQQAVQRGDLTSLVAMGGILSGQSEFYRFVEPDLKQAKAYFNRYLEVAGSDRLSHVYQNSQKQLLDISMQLNGHEKEIAEKIELQLENYQPFFNHDAYWDN,failed
16,MMERFDISAQDLKSFGFTTLFCIVIALATMSIWGGLFGEHLAISFSYGYSAFFSAQWIARRWPELSKRLVNILSLSCAVVLGTSSAYLWLRHYPGFDEFSAYKPIIFLGFIFSAVCFLYFYSHEQKILAQGALEAARRRQSEQEKALLLSQLKQLQSQMEPHFLFNTLANINALIAVEPYKAQLMLEKLTELLRGTMRLRRTNTGDLREEMQLIDAYLGIQKIRLGERLEYTLPELSELGTLGMPPMLIQPLVENAVSHGIEPKAEGGTIRVRIEVADDWFELSVEDNGMGLSDTPKGNGIALQNVRDRLSGLFGHEGLLTVAQNCSGGVTATLRIRLHHLQGLQRSFYDYSQARSPQS,failed
17,MMFGAIIQQIVLGISLAAPVGPINIEMLKRGIERGFWHAWVVGIGGMTADILFMLLIYFGLSSLFMYTYVQAFMYCTGFFLLFYLGFQSVKQGISQSNMEYKKEEVGGLKQSFMAGFLIAISNPLNLVFWFGIYGSTLSSLLTKVTKQEAFLYSLCIIVGIILWNVNIAFSVHFGRTLLKQKALGYITAGAGIILVGYSIHFAYKALQLFT,failed
18,MMFHEGTNVAGNAELIPIRLFGTPRCEAVRDAFFPSKGFALTAALILAPNQSLSRQYAASLLWENVEQKRALGNLRQLILRLQKLPSEDDAILLTEGNDLKAGALAQRTDLAIFLAGARAEDPMRRLNALLEFGGDLLEGLEAGQDHLYLWLLSERRRLKDLFFSSYTQLLEELTRFGRASSNDIARLAECACKIEPEREETYRAAMAAYARVGNISACEGMYQLLMEQLRQEDRSPEAETVALKRRIQSLAATIAGPVEPEEGSRRQVLAKPRVAFVRPARVDGQPVPTVIHAFVEDVANSLVRYRTFTVLSPHSTFALAHDRVDDSYAMLRADYRIISTVFDDSRMSVALIEDASGEIVWSLEAVLTERHIHAAFRLLSKQVAAALAREIERLQVEPDRNHSGEAYRQLLEGQQLLRGKCDLPLLRRARSLFRKAVDLDHSLAVARARVAQSLQLEWLMLGGNDPHLLHRAKAEADASVEIDPALGVGHWMCAVVALYQRDFDISAEKFFEAEALAPNSADLLLQHADALAHFGDAEIAWDKFQQAINLNPLAPDIYWWAGASIAFKRQDYGTAVELCGRMENDEPALRVLTASHALHGDLLAARESGSRLQENYPGMTAREISSLSPDRDPIANERFYHALRLAGIK,failed
